For data set [1], the system named is AnxA13 (Rattus norvegicus). The data set can be described thus: BLI. As to conditions: RNA-binding buffer: 10 mM triethanolamine pH 7.4, 50 mM KCl, 1 mM DTT, 2 mM MgSO4, 100 uM CaCl2; spot blot at RT, blocked with 1 mg/mL tRNA; BLI temperature ….
Data set [2] relates to AnxA2 (Rattus norvegicus). As to the kind of experiment: BLI. As to conditions: RNA-binding buffer: 10 mM triethanolamine pH 7.4, 50 mM KCl, 1 mM DTT, 2 mM MgSO4, 100 uM CaCl2; spot blot at RT, blocked with 1 mg/mL tRNA; BLI temperature ….
Data set [3] relates to Δ142AnxA7 (Rattus norvegicus). The data set can be described thus: BLI. Particulars: RNA-binding buffer: 10 mM triethanolamine pH 7.4, 50 mM KCl, 1 mM DTT, 2 mM MgSO4, 100 uM CaCl2; spot blot at RT, blocked with 1 mg/mL tRNA; BLI temperature ….
The subject of data set [4] is Δ188AnxA11 (Rattus norvegicus). The data set can be described thus: BLI. Particulars: RNA-binding buffer: 10 mM triethanolamine pH 7.4, 50 mM KCl, 1 mM DTT, 2 mM MgSO4, 100 uM CaCl2; spot blot at RT, blocked with 1 mg/mL tRNA; BLI temperature ….
Data set [5] deals with the molecule itself. The data set can be described thus: SDS-PAGE (Coomassie Brilliant Blue staining); purified recombinant rat Anxs on 4%-15% SDS-PAGE, denaturation buffer with beta-mercaptoethanol; dimeric forms seen as faint bands beside the monomer; nature of the dimers not known (disulfide or tight noncovalent).

The term Kd denotes the constant that tells how readily two partners part at equilibrium. A lower Kd goes with tighter binding. As to anxA2 3'UTR, the Kd is 246 nM in data set [1], 192 nM in data set [2], 174 nM in data set [3] and > 500 nM in data set [4].
The matching figures for c-myc 3'UTR: 130 nM, 73.9 nM, 126 nM and 124 nM.
In the case of c-myc 5'UTR, the Kd in data set [2] came to 37.2 nM.

B1: rat Annexin A2 (natural protein, UniProt Q07936 1-339, looked up)
chain: MSTVHEILCKLSLEGDHSTPPSAYGSVKPYTNFDAERDALNIETAIKTKGVDEVTIVNILTNRSNAQRQDIAFAYQRRTKKELPSAMKSALSGHLETVMLGLLKTPAQYDASELKASMKGLGTDEDSLIEIICSRTNQELQEINRVYKEMYKTDLEKDIISDTSGEFRKLLVALAKGKRAEDGSVIDYELIDQDARELYDAGVKRKGTDVPKWISIMTERSVCHLQKVFERYKSYSPYDMLESIRKEVKGDLENAFLNLVQCIQNKPLYFADRLYDSMKGKGTRDKVLIRIMVSRSEVDMLKIRSEFKRKYGKSLYYFIQQDTKGDYQKALLYLCGGDD
notes: The forward primer puts ATGGGT before the natural start codon, so Met-Gly may precede the natural Met; also called AnxA2; source: E. coli BL21 (DE3), purified (Ni2+-NTA, size exclusion chromatography)
As to B1, the binding result in data set [5] is given as “binds”.

B2: rat Annexin A8 (natural protein, UniProt Q4FZU6 1-327, looked up)
chain: MAWWKAWVEQEGVSVKGSSHFNPDPDAETLYKAMKGIGTNEQAIIDVLTKRSNVQRQQIAKSFKAQFGKDLTETLKSELSGKFERLIVALMYPPYRYEAKELHDAMKGLGTKEGVIIEILASRTKNQLREIMKAYEEDYGSTLEEDIQGDTSGYLERILVCLLQGCRDDVSGFVDPGLALQDAQDLHAAGEKILGTDEMKFITILCTRSATHLMRVFEEYEKIANKSIEDSIKSETHGSLEEAMLTVVKCTRNVHSYFAERLYYAMKGAGTLDGTLIRNIVSRSEIDLNLIKSQFQKMYGKTLSSMIMGDTSGYYKTALLNLVGTDL
notes: Annexin A8, rat, 327 aa, cDNA from total RNA of rat lung; The forward primer puts ATGGGT before the natural start codon, so Met-Gly may precede the natural Met; also called AnxA8; source: E. coli BL21 (DE3), purified (Ni2+-NTA, size exclusion chromatography)
B2: in data set [5], the binding result is reported as “binds”.

B3: rat Annexin A1 (natural protein, UniProt P07150 1-346, looked up)
chain: MAMVSEFLKQACYIEKQEQEYVQAVKSYKGGPGSAVSPYPSFNPSSDVAALHKAIMVKGVDEATIIDILTKRTNAQRQQIKAAYLQETGKPLDETLKKALTGHLEEVVLAMLKTPAQFDADELRAAMKGLGTDEDTLIEILTTRSNQQIREITRVYREELKRDLAKDITSDTSGDFRNALLALAKGDRCEDMSVNQDLADTDARALYEAGERRKGTDVNVFNTILTTRSYPHLRKVFQNYRKYSQHDMNKALDLELKGDIEKCLTTIVKCATSTPAFFAEKLYEAMKGAGTRHKTLIRIMVSRSEIDMNEIKVFYQKKYGIPLCQAILDETKGDYEKILVALCGGN
notes: Annexin A1, rat, isoform X1, 346 aa, cDNA by RT-PCR from PC12 cells; The forward primer puts ATGGGT before the natural start codon, so Met-Gly may precede the natural Met; also called AnxA1; source: E. coli BL21 (DE3), purified (Ni2+-NTA, size exclusion chromatography)
Take B3: the binding result in data set [5] is recorded as “binds”.

B4: rat Annexin A3 (natural protein, UniProt P14669 1-324, looked up)
chain: MAASLWVGPRGTINNYPGFNPSVDAEAIRKAIKGIGTDEKTLINILTERSNAQRQLIVKQYQEAYEQALKADLKGDLSGHFEHVMVALITAPAVFDAKQLKKSMRGMGTDEDTLIEILTTRTSRQMKEISQAYYTAYKKNLRDDISSETSGDFRKALLTLADGGRDESLKVDEHLAKKDAQTLYDAGEKKWGTDEDKFTEILCLRSFPQLKLTFDEYRNISQKDIEDSIKGELSGHFEDLLLAVVRCTRNTPAFLAGRLHQALKGAGTDEFTLNRIMVSRSEIDLLDIRREFKKHYGCSLYSAIQSDTSGDYRTVLLKICGGDD
notes: The forward primer puts ATGGGT before the natural start codon, so Met-Gly may precede the natural Met; also called AnxA3; source: E. coli BL21 (DE3), purified (Ni2+-NTA, size exclusion chromatography)
B4: the binding result in data set [5] is on record as “binds”.

These data come from paper PMC10311354, “RNA-binding is an ancient trait of the Annexin family” (Frontiers in Cell and Developmental Biology, 2023).
